Molecular target: the molecule itself
Experiment: cryo-EM structure; purified hEag2 in 20 mM Tris-HCl pH 8.0, 150 mM KCl, 1 mM MgCl2, 0.03% digitonin, about 5 mg/ml; six maps (closed 1, closed 2, pre-open 1, pre-open 2, open, pore dilation but non-conducting) refined with C4 symmetry imposed

B1: human Eag2 (hEag2) voltage-gated potassium channel (natural protein, UniProt Q8NCM2 1-988, looked up)
chain: MPGGKRGLVAPQNTFLENIVRRSSESSFLLGNAQIVDWPVVYSNDGFCKLSGYHRADVMQKSSTCSFMYGELTDKKTIEKVRQTFDNYESNCFEVLLYKKNRTPVWFYMQIAPIRNEHEKVVLFLCTFKDITLFKQPIEDDSTKGWTKFARLTRALTNSRSVLQQLTPMNKTEVVHKHSRLAEVLQLGSDILPQYKQEAPKTPPHIILHYCAFKTTWDWVILILTFYTAIMVPYNVSFKTKQNNIAWLVLDSVVDVIFLVDIVLNFHTTFVGPGGEVISDPKLIRMNYLKTWFVIDLLSCLPYDIINAFENVDEGISSLFSSLKVVRLLRLGRVARKLDHYLEYGAAVLVLLVCVFGLVAHWLACIWYSIGDYEVIDEVTNTIQIDSWLYQLALSIGTPYRYNTSAGIWEGGPSKDSLYVSSLYFTMTSLTTIGFGNIAPTTDVEKMFSVAMMMVGSLLYATIFGNVTTIFQQMYANTNRYHEMLNNVRDFLKLYQVPKGLSERVMDYIVSTWSMSKGIDTEKVLSICPKDMRADICVHLNRKVFNEHPAFRLASDGCLRALAVEFQTIHCAPGDLIYHAGESVDALCFVVSGSLEVIQDDEVVAILGKGDVFGDIFWKETTLAHACANVRALTYCDLHIIKREALLKVLDFYTAFANSFSRNLTLTCNLRKRIIFRKISDVKKEEEERLRQKNEVTLSIPVDHPVRKLFQKFKQQKELRNQGSTQGDPERNQLQVESRSLQNGASITGTSVVTVSQITPIQTSLAYVKTSESLKQNNRDAMELKPNGGADQKCLKVNSPIRMKNGNGKGWLRLKNNMGAHEEKKEDWNNVTKAESMGLLSEDPKSSDSENSVTKNPLRKTDSCDSGITKSDLRLDKAGEARSPLEHSPIQADAKHPFYPIPEQALQTTLQEVKHELKEDIQLLSCRMTALEKQVAEILKILSEKSVPQASSPKSQMPLQVPPQIPCQDIFSVSRPESPESDKDEIHF
notes: human Eag2 potassium channel (hEag2), UniProtKB Q8NCM2; gene placed before a PreScission protease site, followed by C-terminal EGFP and FLAG; the C-terminal GFP tag was removed with HRV 3C protease; the methods describe only one construct; FLAG stands after EGFP behind the protease site, so it leaves with the GFP tag; Residues with poor side-chain density were modelled as alanines in the …
stoichiometry N: 4
